First the molecules themselves.
B1: 82, 179: human NgR1 mutant, listed residues mutated to alanine (protein)
chain: CPGACVCYNEPKVTTSCPQQGLQAVPVGIPAASQRIFLHGNRISHVPAASFRACRALTILWLHSNVLARIDAAAFTGLALLEQLDLSDNAQLRSVDPATFHGLGRLHTLHLDRCGLQELGPGLFRGLAALQYLYLQDNALQALPDDTFRDLGALTHLFLHGNRISSVPERAFRGLHSLDRLLLHQNRVAHVHPHAFRDLGRLMTLYLFANNLSALPTEALAPLRALQYLRLNDNPWVCDCRARPLWAWLQKFRGSSSEVPCSLPQRLAGRDLKRLAANDLQGCAVATGPYHPIWTGRATDEEPLGLPKCCQPDAADKASVLEPGRPASAGNALKGRVPPGDSPPGNGSGPRHINDSPFGTLPGSAEPPLTAVRPEGSEPPGFPTSGPRRRPGCSRKNRTRSHCRLGQAGSGGGGTGDSEGSGALPSLTCSLTPLGLALVLWTVLGPC
B2: 143, 144: human NgR1 mutant, listed residues mutated to alanine (protein)
chain: CPGACVCYNEPKVTTSCPQQGLQAVPVGIPAASQRIFLHGNRISHVPAASFRACRNLTILWLHSNVLARIDAAAFTGLALLEQLDLSDNAQLRSVDPATFHGLGRLHTLHLDRCGLAALGPGLFRGLAALQYLYLQDNALQALPDDTFRDLGNLTHLFLHGNRISSVPERAFRGLHSLDRLLLHQNRVAHVHPHAFRDLGRLMTLYLFANNLSALPTEALAPLRALQYLRLNDNPWVCDCRARPLWAWLQKFRGSSSEVPCSLPQRLAGRDLKRLAANDLQGCAVATGPYHPIWTGRATDEEPLGLPKCCQPDAADKASVLEPGRPASAGNALKGRVPPGDSPPGNGSGPRHINDSPFGTLPGSAEPPLTAVRPEGSEPPGFPTSGPRRRPGCSRKNRTRSHCRLGQAGSGGGGTGDSEGSGALPSLTCSLTPLGLALVLWTVLGPC
B3: D259N: human NgR1 mutant, asparagine substitution to mimic a human polymorphism (protein)
chain: CPGACVCYNEPKVTTSCPQQGLQAVPVGIPAASQRIFLHGNRISHVPAASFRACRNLTILWLHSNVLARIDAAAFTGLALLEQLDLSDNAQLRSVDPATFHGLGRLHTLHLDRCGLQELGPGLFRGLAALQYLYLQDNALQALPDDTFRDLGNLTHLFLHGNRISSVPERAFRGLHSLDRLLLHQNRVAHVHPHAFRDLGRLMTLYLFANNLSALPTEALAPLRALQYLRLNNNPWVCDCRARPLWAWLQKFRGSSSEVPCSLPQRLAGRDLKRLAANDLQGCAVATGPYHPIWTGRATDEEPLGLPKCCQPDAADKASVLEPGRPASAGNALKGRVPPGDSPPGNGSGPRHINDSPFGTLPGSAEPPLTAVRPEGSEPPGFPTSGPRRRPGCSRKNRTRSHCRLGQAGSGGGGTGDSEGSGALPSLTCSLTPLGLALVLWTVLGPC
B4: 127, 176: human NgR1 mutant, listed residues mutated to alanine (protein)
chain: CPGACVCYNEPKVTTSCPQQGLQAVPVGIPAASQRIFLHGNRISHVPAASFRACRNLTILWLHSNVLARIDAAAFTGLALLEQLDLSDNAQLRSVDPATFAGLGRLHTLHLDRCGLQELGPGLFRGLAALQYLYLQDNALQALPDDTFRALGNLTHLFLHGNRISSVPERAFRGLHSLDRLLLHQNRVAHVHPHAFRDLGRLMTLYLFANNLSALPTEALAPLRALQYLRLNDNPWVCDCRARPLWAWLQKFRGSSSEVPCSLPQRLAGRDLKRLAANDLQGCAVATGPYHPIWTGRATDEEPLGLPKCCQPDAADKASVLEPGRPASAGNALKGRVPPGDSPPGNGSGPRHINDSPFGTLPGSAEPPLTAVRPEGSEPPGFPTSGPRRRPGCSRKNRTRSHCRLGQAGSGGGGTGDSEGSGALPSLTCSLTPLGLALVLWTVLGPC
B5: 127, 151: human NgR1 mutant, listed residues mutated to alanine (protein)
chain: CPGACVCYNEPKVTTSCPQQGLQAVPVGIPAASQRIFLHGNRISHVPAASFRACRNLTILWLHSNVLARIDAAAFTGLALLEQLDLSDNAQLRSVDPATFAGLGRLHTLHLDRCGLQELGPGLFAGLAALQYLYLQDNALQALPDDTFRDLGNLTHLFLHGNRISSVPERAFRGLHSLDRLLLHQNRVAHVHPHAFRDLGRLMTLYLFANNLSALPTEALAPLRALQYLRLNDNPWVCDCRARPLWAWLQKFRGSSSEVPCSLPQRLAGRDLKRLAANDLQGCAVATGPYHPIWTGRATDEEPLGLPKCCQPDAADKASVLEPGRPASAGNALKGRVPPGDSPPGNGSGPRHINDSPFGTLPGSAEPPLTAVRPEGSEPPGFPTSGPRRRPGCSRKNRTRSHCRLGQAGSGGGGTGDSEGSGALPSLTCSLTPLGLALVLWTVLGPC
B6: 36, 38: human NgR1 mutant, listed residues mutated to alanine (protein)
chain: CPGACVCYNAPAVTTSCPQQGLQAVPVGIPAASQRIFLHGNRISHVPAASFRACRNLTILWLHSNVLARIDAAAFTGLALLEQLDLSDNAQLRSVDPATFHGLGRLHTLHLDRCGLQELGPGLFRGLAALQYLYLQDNALQALPDDTFRDLGNLTHLFLHGNRISSVPERAFRGLHSLDRLLLHQNRVAHVHPHAFRDLGRLMTLYLFANNLSALPTEALAPLRALQYLRLNDNPWVCDCRARPLWAWLQKFRGSSSEVPCSLPQRLAGRDLKRLAANDLQGCAVATGPYHPIWTGRATDEEPLGLPKCCQPDAADKASVLEPGRPASAGNALKGRVPPGDSPPGNGSGPRHINDSPFGTLPGSAEPPLTAVRPEGSEPPGFPTSGPRRRPGCSRKNRTRSHCRLGQAGSGGGGTGDSEGSGALPSLTCSLTPLGLALVLWTVLGPC
B7: 114, 117: human NgR1 mutant, listed residues mutated to alanine (protein)
chain: CPGACVCYNEPKVTTSCPQQGLQAVPVGIPAASQRIFLHGNRISHVPAASFRACRNLTILWLHSNVLARIDAAAFTGLALLEQLDLSANAALRSVDPATFHGLGRLHTLHLDRCGLQELGPGLFRGLAALQYLYLQDNALQALPDDTFRDLGNLTHLFLHGNRISSVPERAFRGLHSLDRLLLHQNRVAHVHPHAFRDLGRLMTLYLFANNLSALPTEALAPLRALQYLRLNDNPWVCDCRARPLWAWLQKFRGSSSEVPCSLPQRLAGRDLKRLAANDLQGCAVATGPYHPIWTGRATDEEPLGLPKCCQPDAADKASVLEPGRPASAGNALKGRVPPGDSPPGNGSGPRHINDSPFGTLPGSAEPPLTAVRPEGSEPPGFPTSGPRRRPGCSRKNRTRSHCRLGQAGSGGGGTGDSEGSGALPSLTCSLTPLGLALVLWTVLGPC
B8: 63, 65: human NgR1 mutant, listed residues mutated to alanine (protein)
chain: CPGACVCYNEPKVTTSCPQQGLQAVPVGIPAASQRIALAGNRISHVPAASFRACRNLTILWLHSNVLARIDAAAFTGLALLEQLDLSDNAQLRSVDPATFHGLGRLHTLHLDRCGLQELGPGLFRGLAALQYLYLQDNALQALPDDTFRDLGNLTHLFLHGNRISSVPERAFRGLHSLDRLLLHQNRVAHVHPHAFRDLGRLMTLYLFANNLSALPTEALAPLRALQYLRLNDNPWVCDCRARPLWAWLQKFRGSSSEVPCSLPQRLAGRDLKRLAANDLQGCAVATGPYHPIWTGRATDEEPLGLPKCCQPDAADKASVLEPGRPASAGNALKGRVPPGDSPPGNGSGPRHINDSPFGTLPGSAEPPLTAVRPEGSEPPGFPTSGPRRRPGCSRKNRTRSHCRLGQAGSGGGGTGDSEGSGALPSLTCSLTPLGLALVLWTVLGPC

The experiment relates to NgR ligands. In words: Binding of alanine substituted NgR mutants to NgR ligands, summary categories. The settings on record: AP-Nogo66, AP-B4C, AP-B4C66, AP-Lingo-1, AP-OMgp and AP-MAG; compared to wild type NgR. The source says: To better define how multiple ligands bind to the NgR protein, we examined a series of Ala-substituted NgR for ligand binding activity. NgR mutagenesis was done using the Quick Change Multisite Directed Mutagenesis Kit (Stratagene catalog #200514). Human NgR1 was used as a template. Ala substitutions were generated for each of the charged residues predicted to be solvent accessible at the surface of the ligand binding domain of NgR (Barton, W. A., et al., Embo J. 22:3291-3302 (2003); He, X. L., et al., Neuron 38:177-185 (2003)). We generated mutants in which 1-8 surface residues localized within 5 A of one another were Ala-substituted. Because of the coiling nature of the LRR structure, as residues juxtaposed on the protein surface are commonly separated by approximately 25 residues in the primary structure. In addition to mutations in specific charged surface patches, other mutations were targeted to glycosylation sites and to regions predicted to be involved in ligand binding based on the NgR structure (Barton, W. A., et al., Embo J. 22:3291-3302 (2003); He, X. L., et al., Neuron 38:177-185 (2003)). In addition, a variant corresponding to a human polymorphism was examined (D259N). None of the mutations altered the Leu residues that define the LRR structure itself or the Cys residues critical in the amino and carboxyl terminal capping domains. The vast majority of such Ala surface substitution mutants were expressed as immunoreactive polypeptides with a molecular weight and an expression level indistinguishable from wild type NgR (FIG. 4C and data not shown).
This collection of 74 individual NgR mutants was interrogated for AP-Nogo-66, AP-Amino-Nogo-B4C, AP-MAG, AP-OMgp, and AP-Lingo-1 binding. AP-Nogo66, AP-MAG, AP-OMGP and AP-Lingo-1 constructs are described elsewhere (Fournier, A. E., et al., Nature 409:341-346 (2001); Liu, B. P., et al., Science 297:1190-1193 (2002); Mi, S., et al., Nat. Neurosci. 7:221-228 (2004); Wang, K. C., et al., Nature 417:941-944 (2002b)). The properties of the NgR mutants fell into one of three major categories (Table II and FIG. 5). A number of Ala substituted NgR polypeptides bound all of the ligands at wild type levels. […] In addition, a significant extent of the concave surface is dispensable for ligand binding.
Alanine substituted NgR mutants were tested for their binding to AP-Nogo66, AP-B4C, AP-B4C66, AP-Lingo-1, AP-OMgp and AP-MAG and they fall into three categories: (1) Mutants that lose binding to all NgR ligands. (2) Mutants that still maintain binding to all NgR ligands. […] The D259N mutant is an asparagine substitution to mimic a human polymorphism.
In the case of B1, the “ligand binding category of NgR mutant (Table II)” value (shortened to “ligand binding category”) was “No binding”. As for B2, the entry is “Binding to all ligands”; as for B3, “Binding to all ligands”. In the case of B4, the “ligand binding category” value is given as “Binding to all ligands”.

Take B5: the “ligand binding category” value was “Binding to all ligands”.

With B6, the “ligand binding category” value was “Binding to all ligands”. B7: the “ligand binding category” value is recorded as “Binding to all ligands”. For B8, the “ligand binding category” value is “Binding to all ligands”.

(Values after US20090111753A1, “Nogo-A Polypeptide Fragments, Variant Nogo Receptor-1 Polypeptides, and Uses Thereof” (Yale University, priority 2004, published 2009).)
